Experiments:
[1] = target: full-length PcrV.6xhis (Pseudomonas aeruginosa); assay: SPR (Biacore T200), mAb captured via anti-human Fc, PcrV injected, 25 C
[2] = target: full-length PcrV.6xhis (Pseudomonas aeruginosa); assay: SPR (Biacore T200), mAb captured via anti-human Fc, PcrV injected, 37 C

For REGN1932 (antibody), the 90 nM Ag Bound (RU) [1] was -5.9 RU and the 90 nM Ag Bound (RU) [2] was -22.5 RU.
